Consider 4 molecules from patent US20260295010 (published 2026).

Like-named read-outs stand apart in the source and are kept apart here.

Holding throughout (test): SPR, 25C
(Surface plasmon resonance follows binding to a sensor surface in real time, without labels.)

For assay [1], the target named is T1, IL-12RB2-hFc (human, UniProt Q99665).
T1 chain: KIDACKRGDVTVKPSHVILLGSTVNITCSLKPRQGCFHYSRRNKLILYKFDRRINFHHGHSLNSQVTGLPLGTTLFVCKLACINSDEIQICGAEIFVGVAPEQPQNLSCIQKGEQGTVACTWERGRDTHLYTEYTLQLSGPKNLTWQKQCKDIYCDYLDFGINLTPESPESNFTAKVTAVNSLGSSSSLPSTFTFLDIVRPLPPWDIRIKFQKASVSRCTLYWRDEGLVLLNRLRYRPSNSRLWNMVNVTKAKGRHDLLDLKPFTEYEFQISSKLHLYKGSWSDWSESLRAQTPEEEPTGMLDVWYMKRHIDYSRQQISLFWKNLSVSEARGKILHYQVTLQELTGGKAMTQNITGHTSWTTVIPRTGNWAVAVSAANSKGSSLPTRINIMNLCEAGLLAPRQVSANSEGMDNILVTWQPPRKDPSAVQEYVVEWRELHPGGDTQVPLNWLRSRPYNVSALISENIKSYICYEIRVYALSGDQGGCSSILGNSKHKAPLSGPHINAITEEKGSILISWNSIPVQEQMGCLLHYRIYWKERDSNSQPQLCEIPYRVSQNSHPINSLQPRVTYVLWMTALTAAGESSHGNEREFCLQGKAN

Assay [2] concerns the target T2, IL-12RB1-hFc (human, UniProt P42701).
The target of assay [3] is T2, IL-12RB1-hFc. The source holds these as a separate data set.
Assay [4] concerns the target T1, IL-12RB2-hFc.

B1: IL-12p70 K105E (protein)
chain 1: MIWELKKDVYVVELDWYPDAPGEMVVLTCDTPEEDGITWTLDQSSEVLGSGKTLTIQVKEFGDAGQYTCHKGGEVLSHSLLLLHKKEDGIWSTDILKDQKEPKNETFLRCEAKNYSGRFTCWWLTTISTDLTFSVKSSRGSSDPQGVTCGAATLSAERVRGDNKEYEYSVECQEDSACPAAEESLPIEVMVDAVHKLKYENYTSSFFIRDIIKPDPPKNLQLKPLKNSRQVEVSWEYPDTWSTPHSYFSLTFSVQVQGKSKREKKDRVFTDKTSATVICRKNASISVRAQDRYYSSSWSEWASVPCSGGGSHHHHHH
chain 2: MRNLPVATPDPGMFPSLHHSQNLLRAVSNMLQKARQTLEFYPCTSEEIDHEDITKDKTSTVEACLPLELTKNESCLNSRETSFITNGSSLASRKTSFMMALCLSSIYEDLKMYQVEFKTMNAKLLMDPKRQIFLDQNMLAVIDELMQALNFNSETVPQKSSLEEPDFYKTKIKLCILLHAFRIRAVTIDRVMSYLNAS
What is called Kd is the constant that tells how readily two partners part at equilibrium. Low readings indicate a tighter complex, high ones a looser complex. For B1, the Kd in the assay with IL-12RB2-hFc [1] was 0.56 nM; with IL-12RB1-hFc [2], 0.5 nM; in the assay with IL-12RB1-hFc [3] it was 0.13 nM; in the assay with IL-12RB2-hFc [4], 1.1 nM.

B2: IL-12p70 L197A (protein)
chain 1: MIWELKKDVYVVELDWYPDAPGEMVVLTCDTPEEDGITWTLDQSSEVLGSGKTLTIQVKEFGDAGQYTCHKGGEVLSHSLLLLHKKEDGIWSTDILKDQKEPKNKTFLRCEAKNYSGRFTCWWLTTISTDLTFSVKSSRGSSDPQGVTCGAATLSAERVRGDNKEYEYSVECQEDSACPAAEESLPIEVMVDAVHKAKYENYTSSFFIRDIIKPDPPKNLQLKPLKNSRQVEVSWEYPDTWSTPHSYFSLTFSVQVQGKSKREKKDRVFTDKTSATVICRKNASISVRAQDRYYSSSWSEWASVPCSGGGSHHHHHH
chain 2: MRNLPVATPDPGMFPSLHHSQNLLRAVSNMLQKARQTLEFYPCTSEEIDHEDITKDKTSTVEACLPLELTKNESCLNSRETSFITNGSSLASRKTSFMMALCLSSIYEDLKMYQVEFKTMNAKLLMDPKRQIFLDQNMLAVIDELMQALNFNSETVPQKSSLEEPDFYKTKIKLCILLHAFRIRAVTIDRVMSYLNAS
With B2, the equilibrium dissociation constant (Kd) with IL-12RB2-hFc [1] turned out to be 0.55 nM; with IL-12RB1-hFc [2], 0.31 nM; with IL-12RB1-hFc [3], 0.05 nM; in the assay with IL-12RB2-hFc [4], 2.3 nM.

B3: IL-12p70 D94K (protein)
chain 1: MIWELKKDVYVVELDWYPDAPGEMVVLTCDTPEEDGITWTLDQSSEVLGSGKTLTIQVKEFGDAGQYTCHKGGEVLSHSLLLLHKKEDGIWSTKILKDQKEPKNKTFLRCEAKNYSGRFTCWWLTTISTDLTFSVKSSRGSSDPQGVTCGAATLSAERVRGDNKEYEYSVECQEDSACPAAEESLPIEVMVDAVHKLKYENYTSSFFIRDIIKPDPPKNLQLKPLKNSRQVEVSWEYPDTWSTPHSYFSLTFSVQVQGKSKREKKDRVFTDKTSATVICRKNASISVRAQDRYYSSSWSEWASVPCSGGGSHHHHHH
chain 2: MRNLPVATPDPGMFPSLHHSQNLLRAVSNMLQKARQTLEFYPCTSEEIDHEDITKDKTSTVEACLPLELTKNESCLNSRETSFITNGSSLASRKTSFMMALCLSSIYEDLKMYQVEFKTMNAKLLMDPKRQIFLDQNMLAVIDELMQALNFNSETVPQKSSLEEPDFYKTKIKLCILLHAFRIRAVTIDRVMSYLNAS
With B3, the Kd with IL-12RB2-hFc [1] amounted to 1.2 nM; with IL-12RB1-hFc [2], 0.44 nM; with IL-12RB1-hFc [3] it was 0.75 nM; with IL-12RB2-hFc [4], 1.9 nM.

B4: IL-12p70 K196E (protein)
chain 1: MIWELKKDVYVVELDWYPDAPGEMVVLTCDTPEEDGITWTLDQSSEVLGSGKTLTIQVKEFGDAGQYTCHKGGEVLSHSLLLLHKKEDGIWSTDILKDQKEPKNKTFLRCEAKNYSGRFTCWWLTTISTDLTFSVKSSRGSSDPQGVTCGAATLSAERVRGDNKEYEYSVECQEDSACPAAEESLPIEVMVDAVHELKYENYTSSFFIRDIIKPDPPKNLQLKPLKNSRQVEVSWEYPDTWSTPHSYFSLTFSVQVQGKSKREKKDRVFTDKTSATVICRKNASISVRAQDRYYSSSWSEWASVPCSGGGSHHHHHH
chain 2: MRNLPVATPDPGMFPSLHHSQNLLRAVSNMLQKARQTLEFYPCTSEEIDHEDITKDKTSTVEACLPLELTKNESCLNSRETSFITNGSSLASRKTSFMMALCLSSIYEDLKMYQVEFKTMNAKLLMDPKRQIFLDQNMLAVIDELMQALNFNSETVPQKSSLEEPDFYKTKIKLCILLHAFRIRAVTIDRVMSYLNAS
Turning to B4, the Kd with IL-12RB2-hFc [1] was 0.42 nM; with IL-12RB1-hFc [2], 0.7 nM; with IL-12RB1-hFc [3], 0.15 nM; in the assay with IL-12RB2-hFc [4] it was 2.7 nM.
